Drawing on paper PMC4255728, this text covers Km for cyt c (low-affinity phase of biphasic kinetics), steady-state oxygen consumption of mitos, 1.25-350 μM cyt c, 25°C, pH 6.6, 50 mM KCl, 0.05% DDM and Km for cyt c (low-affinity phase), steady-state oxygen consumption of mitos, 1.25-350 μM cyt c, 25°C, pH 6.6, 50 mM KCl, 0.05% DDM for 3 substances.

The target in experiment [1] is Saccharomyces cerevisiae cytochrome c oxidase, 5B isoenzyme (strain COX5B, COX5B downstream of the COX5A promoter) (S. cerevisiae) (UniProt P00401).
Experiment [2] has as its target Saccharomyces cerevisiae cytochrome c oxidase, 5B isoenzyme (strain ΔROX1ΔCOX5A, COX5B under its own promoter) (S. cerevisiae) (UniProt P00401).
Experiment [3] has as its target Saccharomyces cerevisiae cytochrome c oxidase, 5A isoenzyme (strain WTCOX5A) (S. cerevisiae) (UniProt P00401).

On to “Yeast iso-1 cytochrome c (isoform-1) (from UniProt P00044 1-109) (natural protein)”, for which the values for the Km for cyt c (low-affinity phase of biphasic kinetics), steady-state oxygen consumption of mitos, 1.25-350 μM cyt c, 25°C, pH 6.6, 50 mM KCl, 0.05% DDM in experiment [1], in experiment [2] and in experiment [3] were 39.5 μM, 41.2 μM and 29.8 μM, respectively.

For “Horse heart cytochrome c (from UniProt P00004 1-105) (natural protein)”, the Km for cyt c (low-affinity phase), steady-state oxygen consumption of mitos, 1.25-350 μM cyt c, 25°C, pH 6.6, 50 mM KCl, 0.05% DDM was determined as 14.5 μM in experiment [1], 10.8 μM in experiment [2] and 13.9 μM in experiment [3].

“Yeast iso-2 cytochrome c (isoform-2) (from UniProt P00045 1-113) (natural protein)”: the figures for the Km for cyt c (low-affinity phase of biphasic kinetics), steady-state oxygen consumption of mitos, 1.25-350 μM cyt c, 25°C, pH 6.6, 50 mM KCl, 0.05% DDM in experiment [1], in experiment [2] and in experiment [3] were 59.5 μM, 47.8 μM and 23.9 μM, respectively.
